Source: US20160176984A1 (published 2016)

Key:
[1] = target: T1, Human soluble Her-2 (Bender Med Systems, Austria) (human, UniProt P04626 23-652, limits assumed); experiment: ELISA, human soluble Her-2 coated at 2 ug/ml, anti-Fc CH2-HRP detection
T1 construct: given only as 'human soluble Her-2'; It was biotinylated (sulfo-LC-LC-biotin) for the yeast FACS selections; also called recombinant antigen Her2 (Bendermedsystems); Her2-biotin
Protocol: Human soluble Her-2 (Bender Med Systems, Austria) was coated to plastic at 2 μg/ml. After washing and blocking unspecific binding sites, increasing concentrations of Fcabs were added. To detect Her-2 bound Fcabs, anti-Fc CH2 domain specific monoclonal antibodies which were conjugated to horse radish peroxidase (Serotec) were added.

[2] = target: T2, Her-2 on Her-2 over-expressing human breast cancer cell lines SKBR3 and Calu-3 (human, UniProt P04626 23-1255); experiment: FACS on SKBR3 cells, anti-human Fc-PE detection
T2 construct: whole, on cells; also called Her-2 on SKBR3 cells
Protocol: (§1) Antigen binding was also determined by SPR. Biacore CM5 chips were coated with different amounts of human soluble Her-2 followed by addition of increasing concentrations of Fcabs. […] Antigen binding was also assessed by FACS using the Her-2 over-expressing human breast cancer cell lines SKBR3 and Calu-3. 1×10⁵ cells were incubated with increasing concentrations of Fcabs for 60 minutes on ice. Then, unbound antibodies were removed by centrifugation and washing. Cell bound Fcabs were detected by incubation with anti-human Fc specific antibodies conjugated to phycoerythrin (Sigma) for 60 minutes on ice. After washing the cells, the intensity of fluorescence on the cell surface was measured in a FACS Calibur instrument (Beckton Dickinson).

[3] = target: T2, Her-2 on Her-2 over-expressing human …; experiment: cell-based or functional assay
[4] = target: T1, Human soluble Her-2 (Bender Med …); experiment: SPR (Biacore), human soluble Her-2 on CM5 chip, Fcab as analyte
Protocol: as §1

[5] = target: T1, Human soluble Her-2 (Bender Med …); experiment: assay not stated; told under affinity maturation and FACS selection with Her2
[6] = target: T3, Fcab wt expressed on yeast (human, UniProt P0DOX5 218-449 = IgG part); experiment: FACS of yeast-displayed Fcab wt, CD64 staining
T3 construct: also called non-randomized Fc fragments (Fcab wt) expressed on yeast; not shown: Aga2 display fusion partner of the pYD1-derived vector

[7] = target: T4, wild type Fcab (human, UniProt P0DOX5 218-449 = IgG part); experiment: SPR (Biacore), Fcab captured on Protein A chip, human soluble CD64 at 5 ug/ml as analyte
T4 construct: also called Fcab wt; wtFcab

Row | EC50 [1] | EC50 [2] | Kd [4] | EC50 [5] | binding result [6] | binding result [7] | Binder | SKBR3 cell killing (ADCC with human NK cells, 7-AAD/CFSE FACS), EC50 [3]
1 | 16.1 nM | 5.2 nM |  |  |  |  | ABEFs0101 (designed binder, The EF loop is given with 13 residues under 'AA198ff') EPKSCDKTHTCPPCPAPELLGGPSVFLFPPKPKDTLMISRTPEVTCVVVDVSHEDPEVKFNWYVDGVEVHNAKTKPREEQYNSTYRVVSVLTVLHQDWLNGKEYKCKVSNKALPAPIEKTISKAKGQPREPQVYTLPPSRDEYLHGDVSLTCLVKGFYPSDIAVEWESNGQPENNYKTTPPVLDSDGSFFLYSKLTVARYSPSMWRWGHGNVFSCSVMHEALHNHYTQKSLSLSPGK | 1 nM
2 | 4.8 nM | 10.3 nM | 8.6 nM | 18.9 nM |  |  | H10-03-6 (designed binder, Soluble Fcab; The EF loop is given with 13 residues under 'AA198ff'; also called H10-03-6 clone) EPKSCDKTHTCPPCPAPELLGGPSVFLFPPKPKDTLMISRTPEVTCVVVDVSHEDPEVKFNWYVDGVEVHNAKTKPREEQYNSTYRVVSVLTVLHQDWLNGKEYKCKVSNKALPAPIEKTISKAKGQPREPQVYTLPPSRDEYLHGDVSLTCLVKGFYPSDIAVEWESNGQPENNYKTTPPVLDSDGSFFLYSKLTVPRHSARMWRWAHGNVFSCSVMHEALHNHYTQKSLSLSPGK | 1.1 nM
3 |  |  |  |  | binds | binds | human soluble CD64 (receptor, UniProt P12314 16-288, looked up, also called CD64 (R&D Systems)) QVDTTKAVITLQPPWVSVFQEETVTLHCEVLHLPGSSSTQWFLNGTATQTSTPSYRITSASVNDSGEYRCQRGLSGRSDPIQLEIHRGWLLLQVSSRVFTEGEPLALRCHAWKDKLVYNVLYYRNGKAFKFFHWNSNLTILKTNISHNGTYHCSGMGKHRYTSAGISVTVKELFPAPVLNASVTSPLLEGNLVTLSCETKLLLQRPGLQLYFSFYMGSKTLRGRNTSSEYQILTARREDSGLYWCEAATEDGNVLKRSPELELQVLGLQLPTP | 
